Experimental data from patent US20260015399A1 (Boehringer Ingelheim, published 2026).
*1 amine or outer side, *2 acyl side, *3 side chain or, on linkers, in order; H or OH if unused. Side-chain parts run from the residue outwards. The star is where a group is joined. C18 diacid = O=C(O)CCCCCCCCCCCCCCCCC(=O)*; γGlu = O=C(O)[C@H](CCC(=O)[*:2])N[*:1]; Isovaleryl = CC(C)CC(=O)*; Ahx = NCCCCCC(=O)O

T1: human NPY2 receptor (human, UniProt P49146 1-381)
T1 construct: whole, on cells; also called hNPY2-R; hNPY2R
T1 sequence (looked up): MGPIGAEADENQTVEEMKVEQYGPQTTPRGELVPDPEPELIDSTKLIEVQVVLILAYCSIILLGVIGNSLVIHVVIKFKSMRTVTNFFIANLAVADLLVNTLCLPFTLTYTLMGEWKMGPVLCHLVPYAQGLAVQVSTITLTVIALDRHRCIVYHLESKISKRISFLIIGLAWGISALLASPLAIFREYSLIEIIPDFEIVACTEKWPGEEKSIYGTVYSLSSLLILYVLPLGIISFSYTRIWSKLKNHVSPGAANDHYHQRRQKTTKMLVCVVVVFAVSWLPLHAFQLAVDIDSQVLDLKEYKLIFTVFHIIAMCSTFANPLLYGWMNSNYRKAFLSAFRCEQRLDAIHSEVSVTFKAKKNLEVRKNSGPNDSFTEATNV

B1: Compound 141 (peptide)
peptide: Isovaleryl-APEK([Ahx-γGlu-C18 diacid])PEEDATPEELQSYYVSLRHYYNWLTRQRY-NH2
SMILES: CC(C)CC(=O)N[C@@H](C)C(=O)N1CCC[C@H]1C(=O)N[C@@H](CCC(=O)O)C(=O)N[C@@H](CCCCNC(=O)CCCCCNC(=O)CC[C@H](NC(=O)CCCCCCCCCCCCCCCCC(=O)O)C(=O)O)C(=O)N1CCC[C@H]1C(=O)N[C@@H](CCC(=O)O)C(=O)N[C@@H](CCC(=O)O)C(=O)N[C@@H](CC(=O)O)C(=O)N[C@@H](C)C(=O)N[C@H](C(=O)N1CCC[C@H]1C(=O)N[C@@H](CCC(=O)O)C(=O)N[C@@H](CCC(=O)O)C(=O)N[C@@H](CC(C)C)C(=O)N[C@@H](CCC(N)=O)C(=O)N[C@@H](CO)C(=O)N[C@@H](Cc1ccc(O)cc1)C(=O)N[C@@H](Cc1ccc(O)cc1)C(=O)N[C@H](C(=O)N[C@@H](CO)C(=O)N[C@@H](CC(C)C)C(=O)N[C@@H](CCCNC(=N)N)C(=O)N[C@@H](Cc1c[nH]cn1)C(=O)N[C@@H](Cc1ccc(O)cc1)C(=O)N[C@@H](Cc1ccc(O)cc1)C(=O)N[C@@H](CC(N)=O)C(=O)N[C@@H](Cc1c[nH]c2ccccc12)C(=O)N[C@@H](CC(C)C)C(=O)N[C@H](C(=O)N[C@@H](CCCNC(=N)N)C(=O)N[C@@H](CCC(N)=O)C(=O)N[C@@H](CCCNC(=N)N)C(=O)N[C@@H](Cc1ccc(O)cc1)C(N)=O)[C@@H](C)O)C(C)C)[C@@H](C)O
B2: Compound 144 (peptide)
peptide: Isovaleryl-APEK([Ahx-γGlu-C18 diacid])PEEDQTPEELQRYYVSLRHYYNWLTRQRY-NH2
SMILES: CC(C)CC(=O)N[C@@H](C)C(=O)N1CCC[C@H]1C(=O)N[C@@H](CCC(=O)O)C(=O)N[C@@H](CCCCNC(=O)CCCCCNC(=O)CC[C@H](NC(=O)CCCCCCCCCCCCCCCCC(=O)O)C(=O)O)C(=O)N1CCC[C@H]1C(=O)N[C@@H](CCC(=O)O)C(=O)N[C@@H](CCC(=O)O)C(=O)N[C@@H](CC(=O)O)C(=O)N[C@@H](CCC(N)=O)C(=O)N[C@H](C(=O)N1CCC[C@H]1C(=O)N[C@@H](CCC(=O)O)C(=O)N[C@@H](CCC(=O)O)C(=O)N[C@@H](CC(C)C)C(=O)N[C@@H](CCC(N)=O)C(=O)N[C@@H](CCCNC(=N)N)C(=O)N[C@@H](Cc1ccc(O)cc1)C(=O)N[C@@H](Cc1ccc(O)cc1)C(=O)N[C@H](C(=O)N[C@@H](CO)C(=O)N[C@@H](CC(C)C)C(=O)N[C@@H](CCCNC(=N)N)C(=O)N[C@@H](Cc1c[nH]cn1)C(=O)N[C@@H](Cc1ccc(O)cc1)C(=O)N[C@@H](Cc1ccc(O)cc1)C(=O)N[C@@H](CC(N)=O)C(=O)N[C@@H](Cc1c[nH]c2ccccc12)C(=O)N[C@@H](CC(C)C)C(=O)N[C@H](C(=O)N[C@@H](CCCNC(=N)N)C(=O)N[C@@H](CCC(N)=O)C(=O)N[C@@H](CCCNC(=N)N)C(=O)N[C@@H](Cc1ccc(O)cc1)C(N)=O)[C@@H](C)O)C(C)C)[C@@H](C)O
B3: Compound 149 (peptide)
peptide: Isovaleryl-APAK([Ahx-γGlu-C18 diacid])PEEDASPEESQRYYVSLRHYYNWLTRQRY-NH2
SMILES: CC(C)CC(=O)N[C@@H](C)C(=O)N1CCC[C@H]1C(=O)N[C@@H](C)C(=O)N[C@@H](CCCCNC(=O)CCCCCNC(=O)CC[C@H](NC(=O)CCCCCCCCCCCCCCCCC(=O)O)C(=O)O)C(=O)N1CCC[C@H]1C(=O)N[C@@H](CCC(=O)O)C(=O)N[C@@H](CCC(=O)O)C(=O)N[C@@H](CC(=O)O)C(=O)N[C@@H](C)C(=O)N[C@@H](CO)C(=O)N1CCC[C@H]1C(=O)N[C@@H](CCC(=O)O)C(=O)N[C@@H](CCC(=O)O)C(=O)N[C@@H](CO)C(=O)N[C@@H](CCC(N)=O)C(=O)N[C@@H](CCCNC(=N)N)C(=O)N[C@@H](Cc1ccc(O)cc1)C(=O)N[C@@H](Cc1ccc(O)cc1)C(=O)N[C@H](C(=O)N[C@@H](CO)C(=O)N[C@@H](CC(C)C)C(=O)N[C@@H](CCCNC(=N)N)C(=O)N[C@@H](Cc1c[nH]cn1)C(=O)N[C@@H](Cc1ccc(O)cc1)C(=O)N[C@@H](Cc1ccc(O)cc1)C(=O)N[C@@H](CC(N)=O)C(=O)N[C@@H](Cc1c[nH]c2ccccc12)C(=O)N[C@@H](CC(C)C)C(=O)N[C@H](C(=O)N[C@@H](CCCNC(=N)N)C(=O)N[C@@H](CCC(N)=O)C(=O)N[C@@H](CCCNC(=N)N)C(=O)N[C@@H](Cc1ccc(O)cc1)C(N)=O)[C@@H](C)O)C(C)C
B4: Compound 142 (peptide)
peptide: Isovaleryl-APEK([Ahx-γGlu-C18 diacid])PEEDALPEEIQRYYVSLRHYYNWLTRQRY-NH2
SMILES: CC[C@H](C)[C@H](NC(=O)[C@H](CCC(=O)O)NC(=O)[C@H](CCC(=O)O)NC(=O)[C@@H]1CCCN1C(=O)[C@H](CC(C)C)NC(=O)[C@H](C)NC(=O)[C@H](CC(=O)O)NC(=O)[C@H](CCC(=O)O)NC(=O)[C@H](CCC(=O)O)NC(=O)[C@@H]1CCCN1C(=O)[C@H](CCCCNC(=O)CCCCCNC(=O)CC[C@H](NC(=O)CCCCCCCCCCCCCCCCC(=O)O)C(=O)O)NC(=O)[C@H](CCC(=O)O)NC(=O)[C@@H]1CCCN1C(=O)[C@H](C)NC(=O)CC(C)C)C(=O)N[C@@H](CCC(N)=O)C(=O)N[C@@H](CCCNC(=N)N)C(=O)N[C@@H](Cc1ccc(O)cc1)C(=O)N[C@@H](Cc1ccc(O)cc1)C(=O)N[C@H](C(=O)N[C@@H](CO)C(=O)N[C@@H](CC(C)C)C(=O)N[C@@H](CCCNC(=N)N)C(=O)N[C@@H](Cc1c[nH]cn1)C(=O)N[C@@H](Cc1ccc(O)cc1)C(=O)N[C@@H](Cc1ccc(O)cc1)C(=O)N[C@@H](CC(N)=O)C(=O)N[C@@H](Cc1c[nH]c2ccccc12)C(=O)N[C@@H](CC(C)C)C(=O)N[C@H](C(=O)N[C@@H](CCCNC(=N)N)C(=O)N[C@@H](CCC(N)=O)C(=O)N[C@@H](CCCNC(=N)N)C(=O)N[C@@H](Cc1ccc(O)cc1)C(N)=O)[C@@H](C)O)C(C)C
B5: Compound 143 (peptide)
peptide: Isovaleryl-APEK([Ahx-γGlu-C18 diacid])PEEDSTPEELQRYYVSLRHYYNWLTRQRY-NH2
SMILES: CC(C)CC(=O)N[C@@H](C)C(=O)N1CCC[C@H]1C(=O)N[C@@H](CCC(=O)O)C(=O)N[C@@H](CCCCNC(=O)CCCCCNC(=O)CC[C@H](NC(=O)CCCCCCCCCCCCCCCCC(=O)O)C(=O)O)C(=O)N1CCC[C@H]1C(=O)N[C@@H](CCC(=O)O)C(=O)N[C@@H](CCC(=O)O)C(=O)N[C@@H](CC(=O)O)C(=O)N[C@@H](CO)C(=O)N[C@H](C(=O)N1CCC[C@H]1C(=O)N[C@@H](CCC(=O)O)C(=O)N[C@@H](CCC(=O)O)C(=O)N[C@@H](CC(C)C)C(=O)N[C@@H](CCC(N)=O)C(=O)N[C@@H](CCCNC(=N)N)C(=O)N[C@@H](Cc1ccc(O)cc1)C(=O)N[C@@H](Cc1ccc(O)cc1)C(=O)N[C@H](C(=O)N[C@@H](CO)C(=O)N[C@@H](CC(C)C)C(=O)N[C@@H](CCCNC(=N)N)C(=O)N[C@@H](Cc1c[nH]cn1)C(=O)N[C@@H](Cc1ccc(O)cc1)C(=O)N[C@@H](Cc1ccc(O)cc1)C(=O)N[C@@H](CC(N)=O)C(=O)N[C@@H](Cc1c[nH]c2ccccc12)C(=O)N[C@@H](CC(C)C)C(=O)N[C@H](C(=O)N[C@@H](CCCNC(=N)N)C(=O)N[C@@H](CCC(N)=O)C(=O)N[C@@H](CCCNC(=N)N)C(=O)N[C@@H](Cc1ccc(O)cc1)C(N)=O)[C@@H](C)O)C(C)C)[C@@H](C)O
B6: Compound 148 (peptide)
peptide: Isovaleryl-APEK([Ahx-γGlu-C18 diacid])PEEDATPEELQRYYVTLRHYYNWLTRQRY-NH2
SMILES: CC(C)CC(=O)N[C@@H](C)C(=O)N1CCC[C@H]1C(=O)N[C@@H](CCC(=O)O)C(=O)N[C@@H](CCCCNC(=O)CCCCCNC(=O)CC[C@H](NC(=O)CCCCCCCCCCCCCCCCC(=O)O)C(=O)O)C(=O)N1CCC[C@H]1C(=O)N[C@@H](CCC(=O)O)C(=O)N[C@@H](CCC(=O)O)C(=O)N[C@@H](CC(=O)O)C(=O)N[C@@H](C)C(=O)N[C@H](C(=O)N1CCC[C@H]1C(=O)N[C@@H](CCC(=O)O)C(=O)N[C@@H](CCC(=O)O)C(=O)N[C@@H](CC(C)C)C(=O)N[C@@H](CCC(N)=O)C(=O)N[C@@H](CCCNC(=N)N)C(=O)N[C@@H](Cc1ccc(O)cc1)C(=O)N[C@@H](Cc1ccc(O)cc1)C(=O)N[C@H](C(=O)N[C@H](C(=O)N[C@@H](CC(C)C)C(=O)N[C@@H](CCCNC(=N)N)C(=O)N[C@@H](Cc1c[nH]cn1)C(=O)N[C@@H](Cc1ccc(O)cc1)C(=O)N[C@@H](Cc1ccc(O)cc1)C(=O)N[C@@H](CC(N)=O)C(=O)N[C@@H](Cc1c[nH]c2ccccc12)C(=O)N[C@@H](CC(C)C)C(=O)N[C@H](C(=O)N[C@@H](CCCNC(=N)N)C(=O)N[C@@H](CCC(N)=O)C(=O)N[C@@H](CCCNC(=N)N)C(=O)N[C@@H](Cc1ccc(O)cc1)C(N)=O)[C@@H](C)O)[C@@H](C)O)C(C)C)[C@@H](C)O

Target: T1, human NPY2 receptor
Assay: RLB: displacement of 125I-PYY(1-36) from hNPY2R membranes

Ki | Binder
8.17 nM | B1
9.76 nM | B2
3.97 nM | B3
3.97 nM | B4
3.42 nM | B5
2.85 nM | B6
